Reference: PMC6385231, “Activity-Regulated Cytoskeleton-Associated Protein (Arc/Arg3.1) is Transiently Expressed after Heat Shock Stress and Suppresses Heat Shock Factor 1” (Scientific Reports, 2019)

Target: T1, GST-tagged human HSF1 (human, UniProt Q00613 1-529)
T1 construct: Heat shock factor 1 (HSF1), human (hHSF1); The authors surmise that GST dimers induce HSF1 oligomerisation; also called GST-HSF1; GST-hHSF1
T1 sequence (looked up): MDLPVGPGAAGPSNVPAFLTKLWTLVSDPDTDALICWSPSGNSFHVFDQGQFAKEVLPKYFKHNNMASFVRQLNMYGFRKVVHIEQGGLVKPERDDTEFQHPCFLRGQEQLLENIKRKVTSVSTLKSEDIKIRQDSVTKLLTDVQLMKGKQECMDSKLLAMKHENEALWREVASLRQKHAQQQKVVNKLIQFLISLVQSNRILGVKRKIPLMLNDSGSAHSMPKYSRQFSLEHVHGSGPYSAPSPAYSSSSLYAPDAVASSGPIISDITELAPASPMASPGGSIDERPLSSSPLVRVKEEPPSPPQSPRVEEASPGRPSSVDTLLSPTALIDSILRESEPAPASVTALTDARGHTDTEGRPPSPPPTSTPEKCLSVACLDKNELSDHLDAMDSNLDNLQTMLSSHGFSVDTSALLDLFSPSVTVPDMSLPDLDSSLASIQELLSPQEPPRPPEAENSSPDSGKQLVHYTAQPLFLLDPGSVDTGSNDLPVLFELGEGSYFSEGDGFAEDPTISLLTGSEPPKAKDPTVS
Assay: pull-down; GST or GST-hHSF1 on glutathione-agarose beads incubated with purified His-Arc in 20 mM MOPS pH 7.2, 100 mM KCl, 0.5% Tween, 2 μg/mL aprotinin, 3 h at 4°C; Western analysis with anti-GST and anti-Arc; with and without heat shock treatment
Details: both partners purified

binding result: binds
B1: His-tagged human Arc/Arg3.1 (natural protein, UniProt Q7LC44 1-396, looked up)
chain: MELDHRTSGGLHAYPGPRGGQVAKPNVILQIGKCRAEMLEHVRRTHRHLLAEVSKQVERELKGLHRSVGKLESNLDGYVPTSDSQRWKKSIKACLCRCQETIANLERWVKREMHVWREVFYRLERWADRLESTGGKYPVGSESARHTVSVGVGGPESYCHEADGYDYTVSPYAITPPPAAGELPGQEPAEAQQYQPWVPGEDGQPSPGVDTQIFEDPREFLSHLEEYLRQVGGSEEYWLSQIQNHMNGPAKKWWEFKQGSVKNWVEFKKEFLQYSEGTLSREAIQRELDLPQKQGEPLDQFLWRKRDLYQTLYVDADEEEIIQYVVGTLQPKLKRFLRHPLPKTLEQLIQRGMEVQDDLEQAAEPAGPHLPVEDEAETLTPAPNSESVASDRTQPE
notes: Arc/Arg3.1 (activity-regulated cytoskeleton-associated protein), human (hArc/Arg3.1); The construct and its purification are not described in the methods; also called His-Arc; His-Arc/Arg3.1; source: purified
